In one data set the target is T1, rOs1BGlu4 (Oryza sativa, UniProt Q5N863).
T1 construct: gene BGLU4; full-length ORF (483 aa, no signal peptide, about 55 kDa) in pET32a(+), E. coli Origami B(DE3); Trx-His6 tag removed with enterokinase
T1 sequence (Q5N863 1-483): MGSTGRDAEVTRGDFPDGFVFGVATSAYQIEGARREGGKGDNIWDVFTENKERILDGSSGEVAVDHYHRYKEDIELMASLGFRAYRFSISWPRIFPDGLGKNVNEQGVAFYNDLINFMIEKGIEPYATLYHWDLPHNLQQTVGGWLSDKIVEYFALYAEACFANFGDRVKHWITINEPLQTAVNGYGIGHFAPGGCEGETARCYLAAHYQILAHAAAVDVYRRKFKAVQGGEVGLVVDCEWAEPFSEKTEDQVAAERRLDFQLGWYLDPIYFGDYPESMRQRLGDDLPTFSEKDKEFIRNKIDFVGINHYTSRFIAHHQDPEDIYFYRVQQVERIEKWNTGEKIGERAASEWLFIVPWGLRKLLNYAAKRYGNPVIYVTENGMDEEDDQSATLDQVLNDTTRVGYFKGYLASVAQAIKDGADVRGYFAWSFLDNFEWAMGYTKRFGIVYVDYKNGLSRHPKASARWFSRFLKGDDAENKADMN
Put plainly: inhibition of pNPGlc hydrolysis, […] nm. Type of data set: biochemical. The settings on record: read-out: Relative activity remaining (%).

Substrate in data set [1]: O=[N+]([O-])c1ccc(O[C@@H]2O[C@H](CO)[C@@H](O)[C@H](O)[C@@H]2O)cc1
Put plainly: purified protein. The settings on record: 50 mM sodium phosphate pH 6.5, 30°C (standard assay).

Substrate in data set [2]: O=[N+]([O-])c1ccc(O[C@@H]2O[C@H](CO)[C@@H](O)[C@H](O)[C@H]2O)cc1
Put plainly: purified protein. To be noted: 50 mM sodium phosphate pH 6.5, 30°C (standard assay).

Substrate in data set [3]: O=[N+]([O-])c1ccc(O[C@@H]2O[C@H](CO)[C@H](O)[C@H](O)[C@H]2O)cc1
Nature of the data set: purified protein. The settings on record: 50 mM sodium phosphate pH 6.5, 30°C (standard assay).

Substrate in data set [4]: O=[N+]([O-])c1ccc(O[C@@H]2O[C@H](CO)[C@@H](O[C@@H]3O[C@H](CO)[C@@H](O)[C@H](O)[C@H]3O)[C@H](O)[C@H]2O)cc1
Nature of the data set: initial-rate hydrolysis, glucose release by peroxidase/glucose oxidase assay, nonlinear Michaelis-Menten fit. It is filed as biochemical, Oryza sativa. The settings on record: 50 mM sodium phosphate pH 6.5, 30°C (standard assay).

Substrate in data set [5]: C[C@H]1O[C@@H](Oc2ccc([N+](=O)[O-])cc2)[C@H](O)[C@@H](O)[C@H]1O
Put plainly: purified protein. It is filed as biochemical, Oryza sativa. To be noted: 50 mM sodium phosphate pH 6.5, 30°C (standard assay).

Substrate in data set [6]: O=[N+]([O-])c1ccc(O[C@@H]2OC[C@H](O)[C@H](O)[C@H]2O)cc1
Nature of the data set: purified protein. It is filed as biochemical, Oryza sativa. The settings on record: 50 mM sodium phosphate pH 6.5, 30°C (standard assay).

This note sets out measurements from PMC4011751, “Recombinant Expression and Characterization of the Cytoplasmic Rice β-Glucosidase Os1BGlu4” (PLoS ONE, 2014).

Take `OC[C@H]1OC(O)[C@H](O)[C@@H](O)[C@H]1O` (stereo partly drawn) [D-Galactose]: the remaining activity at 10000 µM at rOs1BGlu4 was 93%.

Take `OC1OC[C@@H](O)[C@H](O)[C@H]1O` (stereo partly drawn) [D-Xylose]: on rOs1BGlu4, the remaining activity at 10000 µM amounted to 85%.

On to `OC[C@H]1OC(O)[C@@H](O)[C@@H](O)[C@@H]1O` (stereo partly drawn) [D-Mannose], for which the remaining activity at 10000 µM at rOs1BGlu4 came out at 73%.

Consider `OC1OC[C@H](O)[C@H](O)[C@H]1O` (stereo partly drawn) [L-Arabinose], for which, at rOs1BGlu4, the remaining activity at 10000 µM was determined as 61%.

With `OC[C@H]1OC(O)[C@H](O)[C@@H](O)[C@@H]1O` (stereo partly drawn) [D-Glucose], the remaining activity at 10000 µM at rOs1BGlu4 was found to be 90%.

On to `N[C@H]1C(O)O[C@H](CO)[C@@H](O)[C@@H]1O` (stereo partly drawn) [D-Glucosamine], for which the remaining activity at 10000 µM on rOs1BGlu4 turned out to be 84%.

For the molecule `O=C1O[C@H](CO)[C@@H](O)[C@H](O)[C@H]1O` [δ-glucono-lactone], the remaining activity at 1000 µM at rOs1BGlu4 stood at 14%.

B1: rOs1BGlu4 (Oryza sativa Japonica Group) (protein)
chain: T1 sequence (Q5N863 1-483)
notes: full-length ORF (483 aa, no signal peptide, about 55 kDa) in pET32a(+), E. coli Origami B(DE3); Trx-His6 tag removed with enterokinase
On to B1, for which the Km in the data set “purified protein [1]” worked out at 2240 ± 30 µM; in “purified protein [2]”, 710 ± 20 µM; in the data set “purified protein [3]” it was 7330 ± 320 µM; in data set [4], 140 ± 10 µM; in “purified protein [5]”, 710 ± 20 µM; in “purified protein [6]” it was 380 ± 20 µM. For the same molecule, the kcat turned out to be 1.25 s⁻¹ in the data set “purified protein [1]”; 12.8 s⁻¹ in the data set “purified protein [2]”; 3.16 s⁻¹ in the data set “purified protein [3]”; 3.44 ± 0.18 s⁻¹ in data set [4]; 6.61 ± 0.08 s⁻¹ in “purified protein [5]”; 0.52 s⁻¹ in “purified protein [6]”. Besides, the catalytic efficiency (kcat/Km) in “purified protein [1]” worked out at 560 M⁻¹ s⁻¹; in “purified protein [2]”, 17900 M⁻¹ s⁻¹; in the data set “purified protein [3]”, 430 M⁻¹ s⁻¹; in data set [4], 24400 M⁻¹ s⁻¹; in the data set “purified protein [5]”, 9340 M⁻¹ s⁻¹; in “purified protein [6]” it was 1370 M⁻¹ s⁻¹.

What is called remaining activity is the signal under treatment as a percentage of the control signal. What is called Km is the concentration of substrate that gives half-maximal velocity. The term kcat denotes the number of substrate molecules converted per active site and unit of time at saturation. One may read the kcat/Km as the turnover number divided by the Michaelis constant.
